Results: article PMC6238601, “Specificity for deubiquitination of monoubiquitinated FANCD2 is driven by the N-terminus of USP1” (Life Science Alliance, 2018)

Assays:
Experiment in all cases: pull-down; N-terminal Strep-tagged UAF1 complexed with E. coli USP1, 10 μg bound to MagStrep beads and washed; 10 μg recombinant substrate, 1 h on ice; 50 mM Tris pH 7.5, 120 mM NaCl, 5% glycerol, 1 mM DTT, 0.01% Triton X-100, 0.01% ovalbumin; SDS-PAGE; beads without USP1–UAF1 as control
Details in all cases: both partners purified
[1] = biological target: T1, human FANCD2 (hsFANCD2), non-ubiquitinated (human, UniProt Q9BXW9 1-1451)
T1 construct: FANCD2 (Fanconi anemia group D2 protein), human, full length; gene synthesised and optimised for Spodoptera frugiperda; His-3C tag; tags were not removed from FANCD2; also called Fanconi anemia group D2 protein; source: Sf21 (baculovirus), purified (Ni-NTA, anion exchange, SEC)

[2] = biological target: T2, human PCNA-K164Ub (hsPCNA-Ub) (human | , UniProt P12004 1-261; P0CG48 1-76, K164 monoubiquitinated (isopeptide bond to ubiquitin) | C-terminus linked to K164 of PCNA)
T2 construct: PCNA, human; ubiquitin; Covalent conjugate; also called monoubiquitinated PCNA

[3] = biological target: T3, UAF1 with an N-terminal Strep tag (human, UniProt Q8TAF3 1-677)
T3 construct: UAF1 (USP1-associated factor 1), human; Strep11 tag and linker GGSGGS were added N-terminal of the His-3C tag; as the Strep tag is used for capture, the His-3C stretch was probably kept too (surmise); also called Strep-tagged UAF1; N-terminal Strep-tagged UAF1; source: Sf21 (baculovirus), purified; not shown: Strep11, N-terminal, kept

binding result [3] | Binder | also measured
binds | USP1^Δ1Δ2-R22K, E. coli-expressed (enzyme, human, UniProt O94782 1-785, looked up, USP1, human; Δ229–408, Δ608–737, R22K; source: E. coli BL21, purified (GSH resin, SEC)) MPGVIPSESNGLSRGSPSKKNKLSLKFFQKKETKRALDFTDSQENEEKASEYRASEIDQVVPAAQSSPINCEKRENLLPFVGLNNLGNTCYLNSILQVLYFCPGFKSGVKHLFNIISRKKEALKDEANQKDKGNCKEDSLASYELICSLQSLIISVEQLQASFLLNPEKYTDELATQPRRLLNTLRELNPMYEGYLQHDAQEVLQCILGNIQETCQLLKKEEVKNVAENEVKPINKGEEQIGFELVEKLFQGQLVLRTRCLECESLTERREDFQDISVPVQEDELSKVEESSEISPEPKTEMKTLRWAISQFASVERIVGEDKYFCENCHHYTEAERSLLFDKMPEVITIHLKCFAASGLEFDCYGGGLSKINTPLLTPLKLSLEEWSTKPTNDSYGLFAVVMHSGITISSGHYTASVKVTDLNSLEQSLKEYEGKWLLFDDSEVKVTEEKDFLNSLSPSTSPTSTPYLLFYKKL | –
binds | USP1^Δ1Δ2-L25A, E. coli-expressed (enzyme, human, UniProt O94782 1-785, looked up, USP1, human; Δ229–408, Δ608–737, L25A (one of the alanine point mutants of the N-terminus); source: E. coli BL21, purified (GSH resin, SEC)) MPGVIPSESNGLSRGSPSKKNRLSAKFFQKKETKRALDFTDSQENEEKASEYRASEIDQVVPAAQSSPINCEKRENLLPFVGLNNLGNTCYLNSILQVLYFCPGFKSGVKHLFNIISRKKEALKDEANQKDKGNCKEDSLASYELICSLQSLIISVEQLQASFLLNPEKYTDELATQPRRLLNTLRELNPMYEGYLQHDAQEVLQCILGNIQETCQLLKKEEVKNVAENEVKPINKGEEQIGFELVEKLFQGQLVLRTRCLECESLTERREDFQDISVPVQEDELSKVEESSEISPEPKTEMKTLRWAISQFASVERIVGEDKYFCENCHHYTEAERSLLFDKMPEVITIHLKCFAASGLEFDCYGGGLSKINTPLLTPLKLSLEEWSTKPTNDSYGLFAVVMHSGITISSGHYTASVKVTDLNSLEQSLKEYEGKWLLFDDSEVKVTEEKDFLNSLSPSTSPTSTPYLLFYKKL | –

The next lines start with the binder.

Binder | binding result [3] | also measured
USP1^Δ1Δ2-L25A–UAF1 complex (Strep-tagged UAF1) (complex, USP1, human; Δ229–408, Δ608–737, L25A; as m12; UAF1, human; as m7; source: E. coli USP1^Δ1Δ2-L25A complexed with Sf21 Strep-UAF1, both purified; not shown: Strep11, N-terminal, kept) chain 1: MPGVIPSESNGLSRGSPSKKNRLSAKFFQKKETKRALDFTDSQENEEKASEYRASEIDQVVPAAQSSPINCEKRENLLPFVGLNNLGNTCYLNSILQVLYFCPGFKSGVKHLFNIISRKKEALKDEANQKDKGNCKEDSLASYELICSLQSLIISVEQLQASFLLNPEKYTDELATQPRRLLNTLRELNPMYEGYLQHDAQEVLQCILGNIQETCQLLKKEEVKNVAENEVKPINKGEEQIGFELVEKLFQGQLVLRTRCLECESLTERREDFQDISVPVQEDELSKVEESSEISPEPKTEMKTLRWAISQFASVERIVGEDKYFCENCHHYTEAERSLLFDKMPEVITIHLKCFAASGLEFDCYGGGLSKINTPLLTPLKLSLEEWSTKPTNDSYGLFAVVMHSGITISSGHYTASVKVTDLNSLEQSLKEYEGKWLLFDDSEVKVTEEKDFLNSLSPSTSPTSTPYLLFYKKL chain 2: not shown | – | binding result [1]: binds
USP1^Δ1Δ2–UAF1 complex (Strep-tagged UAF1) (complex, USP1, human; Δ229–408, Δ608–737; as m8; UAF1, human; as m7; Bait complex formed beforehand and held on MagStrep beads; also called UAF1–USP1; USP1–UAF1; source: E. coli USP1^Δ1Δ2 complexed with Sf21 Strep-UAF1, both purified; not shown: Strep11, N-terminal, kept) chain 1: MPGVIPSESNGLSRGSPSKKNRLSLKFFQKKETKRALDFTDSQENEEKASEYRASEIDQVVPAAQSSPINCEKRENLLPFVGLNNLGNTCYLNSILQVLYFCPGFKSGVKHLFNIISRKKEALKDEANQKDKGNCKEDSLASYELICSLQSLIISVEQLQASFLLNPEKYTDELATQPRRLLNTLRELNPMYEGYLQHDAQEVLQCILGNIQETCQLLKKEEVKNVAENEVKPINKGEEQIGFELVEKLFQGQLVLRTRCLECESLTERREDFQDISVPVQEDELSKVEESSEISPEPKTEMKTLRWAISQFASVERIVGEDKYFCENCHHYTEAERSLLFDKMPEVITIHLKCFAASGLEFDCYGGGLSKINTPLLTPLKLSLEEWSTKPTNDSYGLFAVVMHSGITISSGHYTASVKVTDLNSLEQSLKEYEGKWLLFDDSEVKVTEEKDFLNSLSPSTSPTSTPYLLFYKKL chain 2: not shown | – | binding result [2]: binds
USP1^Δ1Δ2-R22A, E. coli-expressed (enzyme, human, UniProt O94782 1-785, looked up, USP1, human; Δ229–408, Δ608–737, R22A; source: E. coli BL21, purified (GSH resin, SEC)) MPGVIPSESNGLSRGSPSKKNALSLKFFQKKETKRALDFTDSQENEEKASEYRASEIDQVVPAAQSSPINCEKRENLLPFVGLNNLGNTCYLNSILQVLYFCPGFKSGVKHLFNIISRKKEALKDEANQKDKGNCKEDSLASYELICSLQSLIISVEQLQASFLLNPEKYTDELATQPRRLLNTLRELNPMYEGYLQHDAQEVLQCILGNIQETCQLLKKEEVKNVAENEVKPINKGEEQIGFELVEKLFQGQLVLRTRCLECESLTERREDFQDISVPVQEDELSKVEESSEISPEPKTEMKTLRWAISQFASVERIVGEDKYFCENCHHYTEAERSLLFDKMPEVITIHLKCFAASGLEFDCYGGGLSKINTPLLTPLKLSLEEWSTKPTNDSYGLFAVVMHSGITISSGHYTASVKVTDLNSLEQSLKEYEGKWLLFDDSEVKVTEEKDFLNSLSPSTSPTSTPYLLFYKKL | binds | –
